Data reported in paper PMC2188614 (The Journal of Experimental Medicine, 1990).

B1: CD3 zeta (transfected cDNA) (natural protein, murine, UniProt P24161-1 22-164, looked up)
chain: QSFGLLDPKLCYLLDGILFIYGVIITALYLRAKFSRSAETAANLQDPNQLYNELNLGRREEYDVLEKKRARDPEMGGKQQRRRNPQEGVYNALQKDKMAEAYSEIGTKGERRRGKGHDGLYQGLSTATKDTYDALHMQTLAPR
B2: CD3 zeta (endogenous) (natural protein, murine, UniProt P24161-1 22-164, looked up)
chain: QSFGLLDPKLCYLLDGILFIYGVIITALYLRAKFSRSAETAANLQDPNQLYNELNLGRREEYDVLEKKRARDPEMGGKQQRRRNPQEGVYNALQKDKMAEAYSEIGTKGERRRGKGHDGLYQGLSTATKDTYDALHMQTLAPR
B3: CD3 eta (transfected cDNA) (natural protein, murine, UniProt P24161-2 22-206, looked up)
chain: QSFGLLDPKLCYLLDGILFIYGVIITALYLRAKFSRSAETAANLQDPNQLYNELNLGRREEYDVLEKKRARDPEMGGKQQRRRNPQEGVYNALQKDKMAEAYSEIGTKGERRRGKGHDGLYQDSHFQAVQFGNRREREGSELTRTLGLRARPKGESTQQSSQSCASVFSIPTLWSPWPPSSSSQL

Target: the molecule itself
Assay: 2-D nonreducing/reducing SDS-PAGE

Stoichiometry N, 2:
B1, B2, B3
